Measured values as given in article PMC9856709 (Cancers, 2023).
“Also recorded” adds a separate entry of the source. Numbered stars: 1 amine (or outer) side, 2 acyl side, 3 side chain; on linkers, the order of the positions; unused ones are H or OH. Square brackets hold non-standard residues; d marks the D form. Peptide text beside a SMILES is read from it. * marks the point of attachment. NOTA = O=C(O)CN1CCN(CC(=O)O)CCN(CC(=O)*)CC1; γGlu = O=C(O)[C@H](CCC(=O)[*:2])N[*:1]; Sta = CC(C)C[C@H](N)[C@@H](O)CC(=O)O; AEEA = NCCOCCOCC(=O)O; Aoc = NCCCCCCCC(=O)O; CO = O=C([*:1])[*:2]

Tests used:
Wistar rats = assay: Acute and subacute toxicity in rats; assay type: in vivo
Procedure: The animals were kept in a barrier-type animal facility under standard housing conditions. […] The dose of heterodimer for toxicological studies was calculated based on cross-species dose conversion using body surface area scaling: the maximum dose for the clinical study was chosen to be 300 µg of heterodimer per 75 kg patient, or […], which corresponds to [(4 µg × 427 g)/1000 g] × 6 = 10.3 µg per rat. Ten rats from each group were euthanized at 24 h pi and five rats at 28 days pi. The body weight of the rats was controlled at baseline, at 24 h after administration for the acute toxicity group, and every second day for the subacute toxicity group. Biochemical blood tests on alanine aminotransferase, albumin, aspartate aminotransferase, bilirubin, glucose, creatinine, urea, the total amount of proteins, cholesterol, and ALT were performed before the euthanasia. Necropsy of the experimental rats was performed, and the weights of the brain, heart, lungs, liver, adrenal glands, kidneys, spleen, testes, and thymus were measured.

[1] = Stability in PBS and EDTA challenge; assay type: physicochemical; conditions: 1 h, ITLC
[2] = 37 °C, 1 h, ITLC
Procedure: After 1 h, samples were taken from all solutions and analysed by ITLC.

PSMA and GRPR [3] = assay: In vitro binding specificity (blocking) in PC3-pip cells; assay type: cell-based, human; conditions: 1 h 37 °C
Procedure: (§1) In vitro experiments were carried out using the PSMA- and GRPR-expressing human prostate carcinoma PC3-pip cell line (obtained from Prof. Martin Pomper, The Johns Hopkins University, Baltimore, MD, USA). Cells (5–7 × 10^5 cells/vial) were seeded 24–48 h before the experiments. All experiments were performed in triplicate.
To block the targets, cells were incubated at room temperature for 15 min with an excess (750 nM/well) of PSMA-11 (to block PSMA) and/or NOTA-PEG2-RM26 (to block GRPR). […] After 1 h, cells were collected, and the radioactive content was measured using an automated gamma counter.

PSMA and GRPR [4] = assay: In vivo binding specificity (blocked groups) in PC3-pip xenografted mice; set-up: species or system BALB/c nu/nu mice; conditions: 1 h pi
Procedure: (§2) Ex vivo experiments and in vivo imaging were carried out using BALB/c nu/nu mice bearing PC3-pip xenografts. All studies were performed according to the guidelines of the Declaration of Helsinki and approved by the Ethics Committee for Animal Research in Uppsala, Sweden (5.8.18-00473/2021. Approved on 26 February 2021).
(§3) There were 4 mice in each group. At 1 and 3 h pi, mice were sacrificed after an intraperitoneal injection of a Ketalar–Rompun solution (20 μL/g body weight) consisting of Ketalar (10 mg/mL) and Rompun (1 mg/mL), followed by heart puncture.

[5] = as above; set-up: species or system BALB/c nu/nu mice; conditions: BALB/c nu/nu, mouse, iv, total radioactivity, 1 h pi, 40 pmol iv, average ± SD
Procedure: as §2, §3

PC3-pip cell line = assay: Cellular processing in PC3-pip cells; assay type: cell-based, human; conditions: 1 nM, 37 °C
Procedure: as §1
At selected time points (1 and 3 h), cells were collected, and the total cell-associated activity was measured using an automated gamma counter. At 3 h, the membrane-bound and internalised fractions were collected separately using the acid and base method described earlier.

PC3-pip xenografts [6] = assay: in vivo; conditions: non-blocked
Procedure: as §2, §3

in vivo = conditions: BALB/c nu/nu, mouse, iv, 40 pmol, total radioactivity
Procedure: as §2, §3

PC3-pip xenografts [7] = assay: nanoScan PET/CT imaging of PC3-pip xenografted mice; assay type: in vivo, BALB/c nu/nu mice; conditions: 100 pmol, 8 MBq, n = 2
Procedure: Immediately after the PET scan, a CT scan was performed using a nanoScan SPECT/CT camera (Mediso Medical Imaging System Ltd., Budapest, Hungary) with the same bed. […] Imaging of the non-blocked (n = 2) and the PSMA/GRPR-blocked (n = 2) groups was performed at 1 and 3 h pi. Reconstruction of the PET/CT scans was conducted using Nucline nanoScan 3.04.014.0000 software.

[8] = 3 h, acid and base method, triplicate

Structure (SMILES): CC(C)C[C@H](NC(=O)C[C@H](O)[C@H](CC(C)C)NC(=O)[C@H](Cc1c[nH]cn1)NC(=O)CNC(=O)[C@@H](NC(=O)[C@H](C)NC(=O)[C@H](Cc1c[nH]c2ccccc12)NC(=O)[C@H](CCC(N)=O)NC(=O)[C@@H](Cc1ccccc1)NC(=O)COCCOCCNC(=O)[C@H](CCCCNC(=O)CN1CCN(CC(=O)O)CCN(CC(=O)O)CC1)NC(=O)[C@H](Cc1ccccc1)NC(=O)CCCCCCCNC(=O)CC[C@H](NC(=O)N[C@@H](CCC(=O)O)C(=O)O)C(=O)O)C(C)C)C(N)=O [[^68Ga]Ga-BQ7812, metal not drawn] ({Glu-CO-γGlu-Aoc}-FK(NOTA)[AEEA][dF]QWAVGH[Sta]L-NH2)
- Clinical or biochemical parameters in toxicological studies (Wistar rats; single iv bolus 10.3 μg (10 MBq for labelled), 24 h and 28 days pi, vs control groups): no changes
- Toxicity conclusion (Wistar rats; single iv bolus 10.3 μg, acute (24 h) and subacute (28 days)): absence of toxicity; also recorded: safe toxicological profile
- Release of free gallium-68 under EDTA challenge ([1]; 1000-fold molar excess EDTA): minor release
- Release of free gallium-68 in PBS ([1]; PBS, room temperature): minor release
- Release of free gallium-68 in human serum [2]: no release of free gallium-68 was detected
- Stability in human serum [2]: stable
- Uptake in cells pre-saturated with both blocking agents compared to either one (PSMA and GRPR [3]; 20 nM tracer): significantly lower
- Activity uptake after pre-saturation of GRPR compared to naive cells (PSMA and GRPR [3]; excess NOTA-PEG2-RM26, 20 nM tracer, triplicate, p < 0.05): significant decrease
- Activity uptake after pre-saturation of PSMA compared to naive cells (PSMA and GRPR [3]; excess PSMA-11, 20 nM tracer, triplicate, p < 0.05): significant decrease
- Activity uptake after pre-saturation of PSMA and GRPR compared to naive cells (PSMA and GRPR [3]; excess PSMA-11 and NOTA-PEG2-RM26, 20 nM tracer, triplicate, p < 0.05): significant decrease
- Uptake in tumour and pancreas, GRPR-blocked group compared with non-blocked group (PSMA and GRPR [4]; co-injected NOTA-PEG2-RM26 5 nmol): statistically significantly lower
- Uptake in tumour and kidneys, PSMA-blocked group compared with non-blocked group (PSMA and GRPR [4]; co-injected PSMA-11 5 nmol): statistically significantly lower
- tissue uptake at 1 h ([5]; blood, GRPR blocked (co-injected NOTA-PEG2-RM26 5 nmol), read-out: Uptake (%IA/g), Blood): 0.69 ± 0.28 %ID/g
- tissue uptake at 1 h ([5]; blood, PSMA blocked (co-injected PSMA-11 5 nmol), read-out: Uptake (%IA/g), Blood): 0.8 ± 0.24 %ID/g
- tissue uptake at 1 h ([5]; kidneys, GRPR blocked (co-injected NOTA-PEG2-RM26 5 nmol), read-out: Uptake (%IA/g), Kidneys): 34.5 ± 8.74 %ID/g
- tissue uptake at 1 h ([5]; kidneys, PSMA blocked (co-injected PSMA-11 5 nmol), read-out: Uptake (%IA/g), Kidneys): 13.8 ± 0.45 %ID/g
- tissue uptake at 1 h ([5]; pancreas, GRPR blocked (co-injected NOTA-PEG2-RM26 5 nmol), read-out: Uptake (%IA/g), Pancreas): 0.76 ± 0.14 %ID/g
- tissue uptake at 1 h ([5]; pancreas, PSMA blocked (co-injected PSMA-11 5 nmol), read-out: Uptake (%IA/g), Pancreas): 6.33 ± 1.86 %ID/g
- tissue uptake at 1 h ([5]; salivary glands, GRPR blocked (co-injected NOTA-PEG2-RM26 5 nmol), read-out: Uptake (%IA/g), Salivary Glands): 0.29 ± 0.07 %ID/g
- tissue uptake at 1 h ([5]; salivary glands, PSMA blocked (co-injected PSMA-11 5 nmol), read-out: Uptake (%IA/g), Salivary Glands): 0.38 ± 0.12 %ID/g
- tissue uptake at 1 h ([5]; tumour (PC3-pip xenograft), GRPR blocked (co-injected NOTA-PEG2-RM26 5 nmol), read-out: Uptake (%IA/g), Tumour (PC3-pip)): 5.73 ± 0.72 %ID/g
- tissue uptake at 1 h ([5]; tumour (PC3-pip xenograft), PSMA blocked (co-injected PSMA-11 5 nmol), read-out: Uptake (%IA/g), Tumour (PC3-pip)): 8.26 ± 1.03 %ID/g
- Binding to the targets in cellular processing (PC3-pip cell line; 1 and 3 h): rapid binding
- Internalised fraction of total cell-associated activity (PC3-pip cell line; [8]): approximately 20%
- Membrane-bound fraction of total cell-associated activity (PC3-pip cell line; [8]): ~80%
- Activity uptake in the kidneys at 3 h pi as % of uptake at 1 h pi (PC3-pip xenografts [6]): 26%
- Activity uptake in the pancreas at 3 h pi as % of uptake at 1 h pi (PC3-pip xenografts [6]): 11%
- Activity uptake in the tumour at 3 h pi as % of uptake at 1 h pi (PC3-pip xenografts [6]): 55%
- tissue uptake at 1 h (in vivo; blood): 0.86 ± 0.16 %ID/g
- tissue uptake at 3 h (in vivo; blood): 0.16 ± 0.02 %ID/g
- tissue uptake at 1 h (in vivo; bone): 0.31 ± 0.06 %ID/g
- tissue uptake at 3 h (in vivo; bone): 0.13 ± 0.03 %ID/g
- tissue uptake at 1 h (in vivo; kidneys): 45.3 ± 16.6 %ID/g
- tissue uptake at 1 h (in vivo; liver): 0.89 ± 0.1 %ID/g
- tissue uptake at 3 h (in vivo; liver): 0.57 ± 0.03 %ID/g
- tissue uptake at 1 h (in vivo; lungs): 0.86 ± 0.15 %ID/g
- tissue uptake at 3 h (in vivo; lungs): 0.2 ± 0.05 %ID/g
- tissue uptake at 1 h (in vivo; muscle): 0.21 ± 0.04 %ID/g
- tissue uptake at 3 h (in vivo; muscle): 0.05 ± 0.01 %ID/g
- tissue uptake at 1 h (in vivo; pancreas): 5.6 ± 0.7 %ID/g
- tissue uptake at 3 h (in vivo; pancreas): 0.6 ± 0.16 %ID/g
- tissue uptake at 1 h (in vivo; remaining organs (other than tumour, kidneys, pancreas)): ≤ 1 %ID/g
- tissue uptake at 1 h (in vivo; salivary glands): 0.44 ± 0.07 %ID/g
- tissue uptake at 3 h (in vivo; salivary glands): 0.14 ± 0.03 %ID/g
- tissue uptake at 1 h (in vivo; small intestine): 1.33 ± 0.31 %ID/g
- tissue uptake at 3 h (in vivo; small intestine): 0.2 ± 0.02 %ID/g
- tissue uptake at 1 h (in vivo; spleen): 0.92 ± 0.16 %ID/g
- tissue uptake at 3 h (in vivo; spleen): 0.33 ± 0.03 %ID/g
- tissue uptake at 3 h (in vivo; tumour (PC3-pip xenograft)): 5.68 ± 0.62 %ID/g
- tissue to tissue ratio at 3 h (in vivo; tumour (PC3-pip) / bone): 47 ± 13
- tissue to tissue ratio at 3 h (in vivo; tumour (PC3-pip) / kidneys): 0.53 ± 0.07
- tissue to tissue ratio at 3 h (in vivo; tumour (PC3-pip) / liver): 9.9 ± 0.8
- tissue to tissue ratio at 3 h (in vivo; tumour (PC3-pip) / muscle): 116 ± 22
- tissue to tissue ratio at 3 h (in vivo; tumour (PC3-pip) / pancreas): 10 ± 4
- tissue to tissue ratio at 3 h (in vivo; tumour (PC3-pip) / small intestine): 28 ± 4
- tissue to tissue ratio at 3 h (in vivo; tumour (PC3-pip) / spleen): 18 ± 3
- tissue uptake at 1 h (in vivo; tumour (PC3-pip)): 10.4 ± 0.97 %ID/g
- tissue uptake at 3 h (in vivo; tumour (PC3-pip)): 5.7 ± 0.6 %ID/g
- tissue to tissue ratio at 1 h (in vivo; tumour / blood): 13 ± 3
- tissue to tissue ratio at 3 h (in vivo; tumour / blood): 35 ± 4
- tissue to tissue ratio at 1 h (in vivo; tumour / bone): 35 ± 8
- tissue to tissue ratio at 1 h (in vivo; tumour / kidneys): 0.3 ± 0.1
- tissue to tissue ratio at 1 h (in vivo; tumour / liver): 11.8 ± 1
- tissue to tissue ratio at 1 h (in vivo; tumour / lungs): 12 ± 3
- tissue to tissue ratio at 3 h (in vivo; tumour / lungs): 29 ± 5
- tissue to tissue ratio at 1 h (in vivo; tumour / muscle): 52 ± 12
- tissue to tissue ratio at 1 h (in vivo; tumour / pancreas): 1.9 ± 0.2
- tissue to tissue ratio at 1 h (in vivo; tumour / salivary glands): 24 ± 3
- tissue to tissue ratio at 3 h (in vivo; tumour / salivary glands): 40 ± 8
- tissue to tissue ratio at 1 h (in vivo; tumour / small intestine): 8 ± 2
- tissue to tissue ratio at 1 h (in vivo; tumour / spleen): 12 ± 3
- PET/CT visualisation, non-blocked (PC3-pip xenografts [7]; 1 and 3 h pi): elevated activity uptake could be visualised in the kidneys and the tumour
- PET/CT visualisation of tumour upon blocking of PSMA and GRPR (PC3-pip xenografts [7]; co-injected NOTA-PEG2-RM26 and PSMA-11 (5 nmol each)): the tumour is no longer visualised
